The values that follow come from patent US20190185574A1 (COMMISSARIAT L NERGIE ATOMIQUE ET AUX NERGIES ALTERNATIVES, published 2019).

Changes are numbered by the printed parent chain. A value given as a limit tells only on which side of the number the result lay.

The target in experiment [1] is T1, peptide C9 of the ETB-R Pep-scan membrane (human).
T1 construct: Residues are inferred as for C5, from the one-residue offset and C11 = 71-82
T1 peptide: AEVPKGDRTAGS
The experiment is described as follows: Pep-scan peptide membrane, 1 µg/ml antibody, chemiluminescent detection.

Experiment [2] concerns the target T2, peptide C10 of the ETB-R Pep-scan membrane (human).
T2 construct: Residues are inferred as for C5, from the one-residue offset and C11 = 71-82
T2 peptide: EVPKGDRTAGSP
The description is as above.

For experiment [3], the target named is T3, peptide C5 of the ETB-R Pep-scan membrane (human).
T3 construct: The peptides are 12-mers offset by one residue, C11 is stated to be 71-82, and C5-C10 share 70-76
T3 peptide: SLAPAEVPKGDR
The experiment is described as above.

Experiment [4] deals with T4, peptide C8 of the ETB-R Pep-scan membrane (human).
T4 construct: Residues are inferred as for C5, from the one-residue offset and C11 = 71-82
T4 peptide: PAEVPKGDRTAG
The description is as above.

Experiment [5] concerns the target T5, peptide C7 of the ETB-R Pep-scan membrane (human).
T5 construct: Residues are inferred as for C5, from the one-residue offset and C11 = 71-82
T5 peptide: APAEVPKGDRTA
Described as above.

The target of experiment [6] is T6, peptide C6 of the ETB-R Pep-scan membrane (human).
T6 construct: Residues are inferred as for C5, from the one-residue offset and C11 = 71-82
T6 peptide: LAPAEVPKGDRT
Described as above.

Experiment [7] deals with T7, human endothelin receptor sub-type B (human, UniProt P24530 27-442).
T7 construct: no signal peptide limits are stated; also called ETB-R; ETBR
T7 sequence: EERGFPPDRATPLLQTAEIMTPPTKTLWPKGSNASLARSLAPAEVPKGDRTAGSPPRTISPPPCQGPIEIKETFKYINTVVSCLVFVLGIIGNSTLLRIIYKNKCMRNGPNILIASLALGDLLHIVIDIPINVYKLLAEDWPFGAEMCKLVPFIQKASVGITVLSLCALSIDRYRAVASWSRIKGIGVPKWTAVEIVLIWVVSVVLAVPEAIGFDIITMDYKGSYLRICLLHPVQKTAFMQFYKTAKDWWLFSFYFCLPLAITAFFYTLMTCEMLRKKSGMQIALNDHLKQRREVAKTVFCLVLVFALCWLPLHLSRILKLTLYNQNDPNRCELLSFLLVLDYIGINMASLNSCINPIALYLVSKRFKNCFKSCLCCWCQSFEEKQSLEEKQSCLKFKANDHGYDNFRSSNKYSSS
The experiment is described as follows: flow cytometry on CHO-ETBR cells; apparent KD = concentration giving 50% of plateau MFI. On the technique in general: In flow cytometry, cells or beads pass a laser one at a time.

The target in experiment [8] is T7, human endothelin receptor sub-type B. The experiment in a line: flow cytometry on CHO-ETBR cells pre-incubated 2 h at 37° C. with 300 nM endothelin 1 (receptor internalised).

B1: Rendomab-B49 (antibody, IgG1, V domains shown)
VH: QVQLQQPGAALVKPGASVKLSCKASGYTFISYWMLWVKQRPGRGLEWIGRIDPDSGGTKYNEKFKSKATLTVDKSSSTAYMQLSSLTSEDSAVYYCAREGDYAWFAYWGQGTLVPVSA
VL: DVLMTQTPLSLPVSLGDQASISCRSSQSIVHSNGNTYLEWYLQKPGQSPKLLIYKVSNRFSGVPDRFSGSGSGTDFTLKISRVEAEDLGVYYCFQGSHVPWTFGGGTKLEIK
notes: Murine monoclonal IgG1/kappa purified from ascites; also called hybridoma CNCM I-5084
For B1, the binding result in experiment [1], in experiment [2], in experiment [3], in experiment [4], in experiment [5] and in experiment [6] was “binds” each time.

B2: Rendomab-B41 (antibody, IgG1, V domains shown)
VH: QVQLQQPGAELVKPGASVKLSCKASGYTFTSYWMHWVKQRPGRGLEWIGRIDPDSGGTKYNEKFKSKATLTVDKPSNTANMQLSSLTSEDSAVYYCVREGWDAWFVYWGQGTLLTVSA
VL: DVLMTQTPLSLPVSLGDQASISCRSSQSIVHSNGNTYLEWYLQKPGQSPKLLIYKVFNRFSGVPDRFSGSGSGTDFTLKISRVEAEDLGVYYCFQGSHVPLTFGAGTKLELKR
notes: Murine monoclonal IgG1/kappa purified from ascites; also called hybridoma CNCM I-5104
Consider B2, for which the Kd in experiment [7] was about 1 nM. Further, the “drop of binding after pre-incubation of the cells with 300 nM endothelin 1” value in experiment [8] is over 50%.

B3: Rendomab-B36 (antibody, IgG3, V domains shown)
VH: QVQLQQPGAELVKPGASVKLSCKASGYTFTSYWIHWVNQRPGRGLEWIGRIDPNSGGTKYNEKFKSKATLTVDKTSSTAYMQFSSLTSEDSAVYYCAREGEFAWFAYWGQGTLVTVSA
VL: B2 VL with S28N, N35Y, F57S, A105S, L111I
notes: Murine monoclonal IgG3/kappa purified from ascites; also called hybridoma CNCM I-5103
In the case of B3, in experiment [7], the Kd was about 1 nM. For the same molecule, the “drop of binding after pre-incubation of the cells with 300 nM endothelin 1” value in experiment [8] was over 50%.
